Measured values: patent US20170015708A1 (BIOKINE THERAPEUTICS, published 2017)

Legend:
Assay in all cases: cell-based or functional assay
[1] = target: T1, RANTES (human) (human, UniProt P13501 24-91)
T1 sequence (looked up): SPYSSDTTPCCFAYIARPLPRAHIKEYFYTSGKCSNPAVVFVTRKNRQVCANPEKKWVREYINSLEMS

[2] = target: T2, I-TAC (human) (human, UniProt O14625 22-94)
T2 sequence (looked up): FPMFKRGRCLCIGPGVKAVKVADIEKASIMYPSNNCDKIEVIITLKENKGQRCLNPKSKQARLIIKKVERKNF

[3] = target: T3, MIG (human) (human, UniProt Q07325 23-125)
T3 sequence (looked up): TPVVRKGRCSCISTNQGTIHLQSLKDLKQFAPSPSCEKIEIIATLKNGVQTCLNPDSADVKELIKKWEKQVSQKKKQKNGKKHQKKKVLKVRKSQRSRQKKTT

[4] = target: MCP-1 (human) (human, UniProt P13500 24-99)
Sequence of MCP-1 (human) (P13500 24-99 limits assumed): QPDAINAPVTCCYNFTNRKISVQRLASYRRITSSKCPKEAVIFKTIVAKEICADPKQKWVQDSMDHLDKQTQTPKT

[5] = target: T4, IP-10 (human) (human, UniProt P02778 22-98)
T4 sequence (looked up): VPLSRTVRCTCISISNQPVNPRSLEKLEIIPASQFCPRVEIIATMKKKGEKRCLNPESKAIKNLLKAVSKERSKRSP

[6] = target: Eotaxin (human) (human, UniProt P51671 24-97)
Sequence of Eotaxin (human) (P51671 24-97 limits assumed): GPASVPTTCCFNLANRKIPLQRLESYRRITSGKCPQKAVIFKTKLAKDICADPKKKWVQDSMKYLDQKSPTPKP

Measured: Inhibition of chemokine-dependent T cell adhesion to VCAM-1 (++ = 100% inhibition)

LDYPIPQTVLHH [BKT-P46 peptide]
100 % inhibition: [1] | [2] | [3] | [4]

SIPSHSIHSAKA [BKT-P2 peptide]
100 % inhibition: [1] | [2] | [5] | [4] | [6]
